This is an account of results in patent US20240052044A1 (VIB VZW, published 2024).

A word on the IC50: it is the concentration needed to halve the response being measured. Read a low IC50 as greater potency in that assay.

This experiment addresses T1, human CCR8 (human, UniProt P51685 1-355).
T1 construct: On stably transfected HEK293 cells or CHO-K1 cells; also called hCCR8
The experiment is described as follows: competition flow cytometry on hCCR8 HEK293 cells; competitor FLAG3-tagged VHH-69.

Numbering of substitutions follows the chain as printed. Numbers in names are those of the source.

T1 sequence (P51685 whole entry): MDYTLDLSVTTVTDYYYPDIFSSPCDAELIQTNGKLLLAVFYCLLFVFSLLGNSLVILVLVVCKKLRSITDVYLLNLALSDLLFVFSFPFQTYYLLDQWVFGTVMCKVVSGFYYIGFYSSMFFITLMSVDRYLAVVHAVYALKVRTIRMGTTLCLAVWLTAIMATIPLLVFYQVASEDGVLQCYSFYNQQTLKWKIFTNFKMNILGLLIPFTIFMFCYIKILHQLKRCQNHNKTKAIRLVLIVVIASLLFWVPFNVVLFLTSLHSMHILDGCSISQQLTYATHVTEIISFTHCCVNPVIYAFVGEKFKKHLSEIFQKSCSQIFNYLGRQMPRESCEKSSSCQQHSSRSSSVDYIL

B1: VHH-123 (VHH)
VHH: DVQLVESGGGLVQPGGSLRLSCTASGRTFTNYKSNYKMAWFRQAPGKARAFVGRTDWTGSSAIIANSVKGRFTISRDNAKNTVYLQMNSLRPEDTAVYYCAAGTTIGQYTYWGQGTLVTVSS
notes: also called VHH-69(E1D, N55S, D65G); not shown: C-terminal His6 tag (no FLAG3 tag)
On to B1, for which the IC50 worked out at 0.71 nM. That is a sub-nanomolar value.

B2: VHH-124 (VHH)
VHH: B1 VHH with S60K
notes: also called VHH-69(E1D, N55K, D65G); not shown: C-terminal His6 tag (no FLAG3 tag)
Regarding B2, the IC50 came to 0.25 nM and the “fold more potent competition IC50 against the control VHH-69(E1D)” value was determined as 2 fold.
